The DeepSol protein solubility set

Assay: soluble on expression in E. coli; label from the status in PepcDB or PDB records

Row | Sequence | soluble on expression in E. coli
1 | MDFVSEMNKILQMELEQFKEFIQKKLEEDKNYLEKLFWLPNGSQMTVLNYLIEQYSEPKLGIDDANRDLLAKIDFVLHEAKDVNVGEPLHQAIVAGKISLALHLLGVDENNFTPGESEKTDVLSILSKVRKKIEESFNHVKRCFFDVDKRDGYGRTLLSLALDAKRQELLIAILARNPIVHATTLRSSAYVPFQPIHQAVVLDYAEGITLLASMGAQLTNPLGSMRDTPVILAARLGKINALAALLELPTQSLSLESENNHLFEDKQTGHTAVEELCERMANENDKADALRGIAMLICRGAEPPRNEKMRNLLSSNRVAFLKAVSTYLADKPQLVDAFVERCHLRESALHNIVYADHSWGSSIRHLLGVPSEAALIVEELVTRKYSDPSFASENVSSLSTTATENLRSERNPLKLYAEFVRRYTQAYDSQMITNRWSTMRWMIAEGNCDWDTVVRYSKNHPTSRTRIVLNEMFNPIPRVHEDIESQQSSPRVVLK | not soluble
2 | MDFWPEFMATSWGREFVAGGFGGVAGIISGYPLDTLRIRQQQSSKSGSAFSILRRMLAIEGPSSLYRGMAAPLASVTFQNAMVFQIYAIFSRSFDSSVPLVEPPSYRGVALGGVATGAVQSLLLTPVELIKIRLQLQQTKSGPITLAKSILRRQGLQGLYRGLTITVLRDAPAHGLYFWTYEYVRERLHPGCRKTGQENLRTMLVAGGLAGVASWVACYPLDVVKTRLQQGHGAYEGIADCFRKSVKQEGYTVLWRGLGTAVARAFVVNGAIFAAYEVALRCLFNQSPSPDIVTGD | soluble
3 | MDGALLIDKPKGITSTEVVERVKEKLKARKAGHTGTLDPIATGLLIILINKATRFSQFFIGMPKTYRFTVKFGAETDTYDAQGKVVETYEGELNCDKLKEVLNEFRGEILQTPPPFSAKKIKGRRAYELARKGKKVELKPVKITVYSLELLSCNPREKEAEFLAEISSGGYVRSLAYDIGKKLGIGGYMKELRRLKIDEISVEEAVSLEEFLSSENPEEYVLPVDTLFRVIPEVRLNTFEAGKILQGKRILIKNYDYEGLVKIYEDSKFIGIGELKGGVLSPKRLLV | soluble
4 | MDGHHVDARPVEPVQGERDGRAGGSGMSLIKSVRHWLRRHPTVATEPATPPARGAHRGQVDHVILFDGTCSSLEAGHETNVGLIFKLLREERRSVQRTIYYEPGLQWGGWLRIGDLVQGKGLNRQIRRAYGYLASHYQPGDRIFLFGYSRGAYAARSLAGVIDRVGLLRREEATERNVRLAWRHYEQGSIRPHARAFSRRHCHARVEIEMVGIFDTVKALGLRLPLLWRLSEDRHAFHSHKLGRTVRHGFHALALDETRTVFEPVLWDYPYHGQIVEQAWFRGGHGDIGGQLAGGRHGSRLLSNIPLVWMLERATHCGLQLPEGWRARHPCDVTAPMTSMYAGWGKIFLSRQRRPTLRCPTEYIHPTALRPEPRRRKWRLRWGGAPEGEPTQGLEHHHHHH | not soluble
5 | MDGNAPEPRYWEKMRLVAEVLKAVEGPIYIATHVDPDGDAIGSSLGLYRALKALGKEAYWVADPPRFLRFLPKEEEYSDPVEKLPPGATLVALDSAEPSRVVGVPVEGFVINIDHHGTNPRFGHLHVVDPSKAATAQMVKDLIDLLGVEWTAEIATPVLTGILTDTGNFRFANTTPEVLRVAAELLGYGVKLAELTDRLQFRPPSYFRLMGQVLSTVAFHFGGLLVTAHLPEEAGAEEDSDDFVGLIRYVEGSVVSVFLRKREEGVKVSIRSRGGVSAQNIALKLGGGGHVPAAGATLKGLDLDQAYERVLEAVREELTRAGYLLEHHHHHH | not soluble
6 | MDGSQGSTDYGDHVVLRYGGTREMVPLIRHEQMLDMLMERARQIVQGFGNLDTRNMYLFRHEYNSPTLLYPITSASQITSGSILEIILVDRTEAAVIPHVVEPESYMRPTFCDFCGEMLTGLMRQGVKCKNCNGNFHKRCSNAARNNCGAPGAPGAQPSRPPILPPIPTTPTGFPVAALSTPTGLPHTLIEHSYRQFTVCKVCDHLLVGLVKQGLKCRDCGVNVHRKCAMELASNCVLSENAISRVNFTDPEGPGSSSSDNIPLFRLPGQVGTRATEKKKLEGWMMHFILSDPERRLKHYWMMQSNAIHLYNEYSEGIGVNPNRVYRIIPLAEITSVVQNNGKSVLAKHPPHCFEIRTTTNTVFCVGEDYHAFSGGPPKKIPRSMSVRPSSNTTMWFQFIKESLQPPSRNEDNAEQALEFANLYQVLSDKTLGSGQFGTVYSAIQRHSGKEVAVKVISKERFSKKGSGAESMRAEVAILQQTCHPGIVCLEFMCETKDKIFVVMEKMNGDMLEMILSQELGRLNSRATKFLLVQILCALKYLHDQGIAHCDLKPENVLLSDMGSNFPQTKICDFGYARFIPESQFRKTVVGTPAYLPPEVLQRKGYNKSLDMWSVGVIIYVTLSGTFPFNEGEEISEQIQNASFMFPTEPWSEVEPLAVDLIQKLLKVEIEARMSIEQCLDHGWLKGEQLYRDLRDLEVRLNTPRYLTSPQDDILYGTLVNP | not soluble
7 | MDGTRTSLDIEEYSDTEVQKNQVLTLEEWQDKWVNGKTAFHQEQGHQLLKKHLDTFLKGKSGLRVFFPLCGKAVEMKWFADRGHSVVGVEISELGIQEFFTEQNLSYSEEPITEIPGTKVFKSSSGNISLYCCSIFDLPRTNIGKFDMIWDRGALVAINPGDRKCYADTMFSLLGKKFQYLLCVLSYDPTKHPGPPFYVPHAEIERLFGKICNIRRLEKVDAFEERHKSWGIDCLFEKLYLLTEK | not soluble
8 | MDIAQDWNGIPVPANPGNGMTWQLQDNVSDSFNYTSSEGNRPTAFTSKWKPSYINGWTGPGSTIFNAPQAWTNGSQLAIQAQPAGNGKSYNGIITSKNKIQYPVYMEIKAKIMDQVLANAFWTLTDDETQEIDIMEGYGSDRGGTWFAQRMHLSHHTFIRNPFTDYQPMGDATWYYNGGTPWRSAYHRYGCYWKDPFTLEYYIDGVKVRTVTRAEIDPNNHLGGTGLNQATNIIIDCENQTDWRPAATQEELADDSKNIFWVDWIRVYKPVAVSGGGNNSLEHHHHHH | soluble
9 | MDIVISGGTGLIGRAITEIQGNTYNVITRGPSRTDGNINLVNWNDLRKIRHCDVVINLAGYNIGSKRWNPKIKEEIIRSRIESTRRMVEFISSLDSKPEAFLSGSAIGYYGYGENTVFDENSPPGTGFLAELANAWEDEALKASRYTRTVILRTSNVLSSSGGFLARIMNSRSRRVYYFGDGDQPVSWIHIKDYVNAVKFLMENKDISGPVNMAAPSPVSFADLAHAIAREKGYKEMKIPEFIGKLILGSEMYRELMSGQRVAPKKLTGSGFSFQYPDLESAIKNLLEHHHHHH | not soluble
10 | MDKIHAMQLFIRVADLESFSRAAETLALPKGSVSRQIQALESHLGVRLLHRTTRRVQLTQDGMVYYERAKDLLSNLDELDGMFQHDPASISGRLRVDMPVGFAKKMVIPHLPTFLQQYPGIELELSSSDRQVDVIREGFDCVVRVGALKDSGLIARPLGKLTQINCASPDYLARFGYPQSLEDLADHALIHYASTLGVRPPGFEVMIDGAVRWVKTGGILTVNSTETYQAACIAGLGIIQVPRTGVREALRAGDLIEILPQYRAEPLPVSLIYPHRRNLSRRVNLFMEWLGGLMKAYVD | not soluble
11 | MDKSLLLELPILLCCFRALSGSLSMRNDAVNEIVAVKNNFPVIEIVQCRMCHLQFPGEKCSRGRGICTATTEEACMVGRMFKRDGNPWLTFMGCLKNCADVKGIRWSVYLVNFRCCRSHDLCNEDL | not soluble
12 | MDLICMYVFKGEESFGESIDVYGDYLIVKVGTEFLAVPKKSIKSVEDGRIVIGEFDEEEARELGRKWLEEKSKPVTLEELKSYGFGEEGE | not soluble
13 | MDLIPARIGLIYNPLGGWFRKHTARMQSLLATLPEIRQIQATDQIEFERAVTVVVEAKIGWLIVVGGDGTLQGVMSCLFECLPPDRWPEITIVPAGTTNMTALDLGMNGQAEQILSRIRQHLQRPGDMKQVRRP | not soluble
14 | MDLPVMPPVKPMLAKSVAKIPPDMQYEAKWDGFRAIVFRDGTEVELGSRTGKPLTRYFPELVEALRDRLPERCVIDGEIVIARDGRLDFDALTERIHPAESRVRMLAEKTPASFVAFDLLALADDSLLDTPLTERRALLESALSGVTAPVHVAPATTDREVAEQWFEQYEGAGLDGVIAKPLTLRYRQDERAMFKVKHERTADVVVAGYRLHKSGPVVGSLLLGLYDDRGALQHVGVSAAFPMKRRAELVEELEPLRMEDAAGHPWAAWSNEAAHETARLPGAPSRWSGKKDLSWVPLRPERVAEVAYDHMENGARFRHTARFRRWRPDRTPESCTYAQLEEPVSYDLTEILGSRGLEHHHHHH | soluble
15 | MDLQIIQNKIFEVRGCRVMLDFHLAELYQVETRALKQAVKRNLSRFPSDFAFQLTKDEWQGLITNCDKFPENIRHTPTPPLAFLEQGVAMLSSVLRSQTAIDVNISIMRAFVLMRQMSIGYEELLKRIEELEQSTDAQFSEVYQALTQLLSKPDPKPRKPIGYRTYDE | not soluble
16 | MDLSALREDFPLFAQRPELVYLDSAATSQKPRRVIEALRRYYETLNANVHRGAYRLSAEATEAYEEARRRLARFLNAEPKEIVFVRNTTEAMNLVAYAWGLRNLKEGDEVLVTEMEHHAGLVPWHLVAGLTGAKVKAIPLTEEGRLDLSALEDLLTERTRVVSLVHMSNVLGTINPVAEIARRAKEAGALVVVDGAQSAPHLPVDVKALGADFFALSGHKMLGPTGAGVLWGRYEVLEGMMPFLGGGEMILEVHVDRSTYAPPPQRFEAGTPPIAEAIALGEAACYLMEVGMEKVFAHDRALLDYALKRLEEVPRLRVYGPKGLDRGGVIPFTLGRLHAHDLATFLDQEGIAVRAGHHCAQPLHRKLGLAATARASFYLYNTKEEVDRFVEALLRIEAKYRAWL | soluble
17 | MDLVKVDDDVVREMEIRRQQHSKKYDRKFEELVKSMSEAHVEPEKMKIPFSRKPTEQETNNLREEWEKEYAALCTSGRTLARPNPNSSIFSKILAQGSPSSAKAGTTRSTPRTSKPPSADENIIFGQKLPETPAPKLLCPPRASPGSSRRLSIFVENLPENHAEIVRGTIFAGREAKIMQNDPENVPSTSTYGEPIRPYLLFARYISLEKGLLDDKNRYKSATDPRFREFLKENIKYKVKQSIKHRTSSEACAQILNYFKTLLQKQEVQVLGGYAPVLQLKTNKDIEYASLCIVHNYVILAERDESLIPLISSHITRLSVFYGYIEQVFCIILLSRSALLRQHPEECMVKFLATSMNPSSPDAIKKWSRQKAHIILFCSVFTKNAYCFSKGFKLKLTDEILWKYVDASTAHILEIPRGSFILWQLITTCKPRLQVDKERWIQLLLNIKFKIIPELDLDSFDGDEAMLMQLKQTIDELLHP | not soluble
18 | MDLYYRPGSAPCRSVLMTAKALGVEFDKKTIINTRAREQFTPEYLKINPQHTIPTLHDHGFALWESRAIMVYLVEKYGKDDKLFPKDVQKQALINQRLYFDMGTLYKSFSEYYYPQIFLKKPANEENYKKIEVAFEFLNTFLEGQTYSAGGDYSLADIAFLATVSTFDVAGFDFKRYANVARWYENAKKLTPGWEENWAGCQEFRKYFDN | soluble
19 | MDMDKRSSDLEAALRIVLQQTLNIVLQAQEKLPEANVVPSTPPTSPSTDIGEQMASFWNIPSPNPPATSATSSTSPEEEIPCICFNCWGNVAAAANSKTWKSPNQADFRSAAAPLTEEKSHA | not soluble
20 | MDMKKWLVATALIATTISGVTQAKEWKTVRFGIEGAYPPFSWTEADGSLKGFDVDMANALCAEMQVECKIVPQDWDGIIPSLLARKYDAIIAAMSITEERKKKVDFTGKYAQIPNKFIAKKGADLAFTKEGLKGVKIGVQRATTHDKYITDNYGDTVDIVRYGSFDEAYLDLANGRIAAVLGDASALEEGMLNKPGGDAYEFVGPSLTDPKWFGEGMGIAVRKQDKELTEKLDAAITALREKGIYQQIQAKYFKYDVYGE | not soluble
